# Measured values reported in patent publication US9046524B1, “Method to quantify and measure excess colipase in a pancreatin active pharmaceutical ingredient” (Scientific Protein Laboratories, LLC, priority 2012, dated 2015).
# T1: lipase (Sus scrofa, UniProt P00591)
# T1 construct: purchased USP Rockville, Md; 1494079
# T1 sequence (P00591 1-450): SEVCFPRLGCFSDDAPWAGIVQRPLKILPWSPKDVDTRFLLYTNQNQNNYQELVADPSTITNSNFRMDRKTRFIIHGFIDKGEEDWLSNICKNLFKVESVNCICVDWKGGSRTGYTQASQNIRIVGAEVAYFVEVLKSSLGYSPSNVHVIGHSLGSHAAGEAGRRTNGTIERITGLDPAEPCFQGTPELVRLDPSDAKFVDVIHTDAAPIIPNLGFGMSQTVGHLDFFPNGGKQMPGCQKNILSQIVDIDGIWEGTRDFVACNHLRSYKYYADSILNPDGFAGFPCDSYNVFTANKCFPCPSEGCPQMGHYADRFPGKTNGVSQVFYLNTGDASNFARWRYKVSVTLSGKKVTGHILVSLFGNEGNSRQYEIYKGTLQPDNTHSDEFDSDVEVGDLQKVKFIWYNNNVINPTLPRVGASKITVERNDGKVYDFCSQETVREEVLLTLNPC
# T2: pancreatin lipase (Sus scrofa, UniProt P00591)
# T2 construct: purchased USP Rockville, Md; 1494079; host or cells: also pancreatin API samples #1, #2, #3 (pancreas extract)
# T2 sequence (P00591 1-450): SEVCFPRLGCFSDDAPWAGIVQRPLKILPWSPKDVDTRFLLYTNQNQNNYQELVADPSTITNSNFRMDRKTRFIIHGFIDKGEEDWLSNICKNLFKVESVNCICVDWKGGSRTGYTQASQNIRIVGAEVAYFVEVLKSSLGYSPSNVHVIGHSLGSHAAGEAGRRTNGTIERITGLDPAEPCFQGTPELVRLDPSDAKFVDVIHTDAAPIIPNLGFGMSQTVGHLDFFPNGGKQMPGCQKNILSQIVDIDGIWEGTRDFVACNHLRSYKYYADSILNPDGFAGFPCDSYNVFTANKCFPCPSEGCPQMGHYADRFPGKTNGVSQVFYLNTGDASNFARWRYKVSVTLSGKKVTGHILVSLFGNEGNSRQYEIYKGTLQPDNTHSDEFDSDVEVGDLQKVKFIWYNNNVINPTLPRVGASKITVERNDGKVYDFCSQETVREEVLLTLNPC
# T3: lipase (Sus scrofa, UniProt P00591)
# T3 construct: from tissue; host or cells: pancreatin API batches (pancreas extract)
# T3 sequence (P00591 1-450): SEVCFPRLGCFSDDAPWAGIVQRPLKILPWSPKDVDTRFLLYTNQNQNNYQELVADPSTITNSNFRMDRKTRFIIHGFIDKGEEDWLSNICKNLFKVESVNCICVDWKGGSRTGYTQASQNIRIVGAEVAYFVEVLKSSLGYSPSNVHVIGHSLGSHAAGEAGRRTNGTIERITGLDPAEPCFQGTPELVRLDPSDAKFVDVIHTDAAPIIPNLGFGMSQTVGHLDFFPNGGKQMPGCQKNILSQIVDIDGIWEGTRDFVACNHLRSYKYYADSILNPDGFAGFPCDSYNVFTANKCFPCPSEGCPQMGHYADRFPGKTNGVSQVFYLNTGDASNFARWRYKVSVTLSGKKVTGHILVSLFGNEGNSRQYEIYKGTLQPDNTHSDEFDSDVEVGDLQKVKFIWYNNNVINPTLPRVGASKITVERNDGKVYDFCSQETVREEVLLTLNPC
# T3 sequence (P02703 23-112 partner): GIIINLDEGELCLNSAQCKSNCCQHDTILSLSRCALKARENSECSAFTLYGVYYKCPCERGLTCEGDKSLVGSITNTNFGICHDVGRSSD
# Key:
# Type in all cases: biochemical
# [1] = target: T1, lipase; assay: Bile salt (Na-TDC) inhibition of lipase activity against tributyrin
# Description: Lipase activity against tributyrin is assayed with different concentration of TDC to determine the CMC for inhibition. The minimum TDC concentration to achieve sufficient inhibition of lipase activity is determined. Five different concentrations (1, 4, 8, 12 and 16 mM) of sodium taurodeoxy-cholate (Na-TDC) are used to determine the CMC of bile salt on two concentrations of lipase (2.5 and 5.0 μg/mL). […] As shown also in FIG. 4, increasing the concentration of bile salt above the CMC results in a progressive inhibition of lipase activity (4-16 mM Na-TDC). […] The lipase inhibition with higher concentration of bile salt (above CMC) is more consistent with the lipase at 5.0 μg/mL when compared to 2.5 μg/mL lipase (FIG. 4).
# [2] = target: T2, pancreatin lipase; assay: Orlistat inhibition of lipase activity on GTB substrate; conditions: 1.0 μM Lipase:Orlistat equal molar, 5 minutes on ice; USP Lipase and pancreatin samples #1, #2, #3; 1 mM Na-TDC
# Description: To check the specificity of the substrate GTB, an inhibition experiment is conducted with the specific inhibitor Orlistat (Tetrahydrolipstatin, THL, Sigma #04139). […] To check the specificity of GTB substrate, bile salt below CMC concentration (1 mM Na-TDC) is chosen to obtain maximum lipase activity.
# The Orlistat is dissolved in dimethyl sulfoxide (DMSO) to obtain 1.0 mg/mL stock solution. Lipase (USP) and pancreatin samples #1, #2 and #3 are mixed with Orlistat at equal molar concentrations (1.0 μM Lipase:Orlistat) and incubated for 5 minutes on ice. The assays are performed on USP Lipase and pancreatin API samples with and without Orlistat. All the samples are titrated with 0.005 M NaOH for 5 minutes in a glass mixing chamber with 30 mL of substrate mix containing 1 mM Na-TDC at 37° C. temperature and pH 7.5.
# [3] = target: T3, lipase; assay: Reactivation of bile salt-inhibited lipase by added colipase
# Description: In yet another embodiment, the effect of colipase on lipase activity and determination of the optimum concentration of colipase to measure the restored lipase activity is studied. The method for colipase determination is based on the principle that lipase inactivated by bile salt is reactivated by colipase (FIG. 1). FIG. 4 supports the theory of reactivation of lipase with the addition of exogenous colipase. As such, different concentrations of bile salt (0, 4, 8, 12 and 16 mM) are tested in the presence of 5.0 μg of lipase per reaction to measure the lipase activity. To each reaction beaker, a different amount of colipase (2.5, 5.0 and 10 μg) is added to the assay mixture prior to the lipase.
# However, by adding different concentration of exogenous colipase (Sigma Cat #C3028), lipase activity is restored. In FIG. 5, 2.5 μg colipase, 5.0 μg colipase, and 10.0 μg colipase bars with 4, 8, 12 and 16 mM Na-TDC represent the lipase activity due to reactivation of lipase from addition of exogenous colipase. The presence of colipase at higher concentration will inhibit lypolysis. […] Although the main function of colipase is to restore the activity of the bile salt-inhibited lipase, colipase also has been reported to affect the activity of lipase in absence of bile salts by stabilizing lipase and decreasing its rate of inactivation in the presence of substrate (see Borgstrom and Brockman, 1984). […] Results reveal the most favorable amount of colipase to recover the inhibited lipase is 2.5 μg per assay with 4 mM Na-TDC.
# In still another embodiment, a separate study is performed with differing amounts of lipase (2.5, 5.0 and 10 μg per reaction) to determine the maximum recovery of lipase activity in the presence of 4 mM Na-TDC and 2.5 μg added colipase. The colipase content of the sample is determined as a difference between two titration values, the blank with lipase and the test with lipase plus added colipase (test values−blank values). The accuracy of the determination is dependent on the relative proportion between lipase and colipase.
# The activity in the absence of added colipase increases with increase in lipase amount, due to presence of endogenous colipase. Further, the lipase activity increases by adding exogenous colipase.
molecule,measurement,setting,value
"C[C@H](CCC(=O)NCCS(=O)(=O)[O-])[C@H]1CC[C@H]2[C@@H]3CC[C@@H]4C[C@H](O)CC[C@]4(C)[C@H]3C[C@H](O)[C@]12C.O.[Na+] [Na-TDC, sodium taurodeoxycholate hydrate]",effect on lipase activity below CMC,[1]; 1 mM Na-TDC compared to 0 mM,enhancement in lipase activity
same,effect on lipase activity above the CMC,"[1]; 4, 8, 12 & 16 mM Na-TDC, lipase 2.5 and 5.0 μg/mL",almost complete inhibition of lipase activity
CCCCCCCCCCC[C@@H](C[C@@H]1OC(=O)[C@H]1CCCCCC)OC(=O)[C@H](CC(C)C)NC=O [Orlistat],inhibition of lipase activity,[2],90%
"colipase: Colipase Standard: Sigma Colipase from porcine pancreas Cat #C3028 (protein, UniProt P02703 23-112, looked up) Colipase: GIIINLDEGELCLNSAQCKSNCCQHDTILSLSRCALKARENSECSAFTLYGVYYKCPCERGLTCEGDKSLVGSITNTNFGICHDVGRSSD",restored lipase activity,"[3]; 2.5 μg colipase, 4 mM Na-TDC, 10.0 μg lipase",0.23 fold
same,increase in restored lipase activity,"[3]; 2.5 μg colipase, 4 mM Na-TDC, 2.5 and 5.0 μg of lipase",two-fold
same,increase in lipase activity by addition of colipase,"[3]; 2.5 μg colipase, without bile salt, 5.0 μg lipase",about 1.5 fold
same,"restored lipase activity with 5 and 10 μg colipase, fold lower than with 2.5 μg colipase",[3]; 16 mM TDC,4 fold
